Changes are numbered by the printed parent chain.
How the values were obtained:
[1] = biological target: T1, CdbA K8A/S10A-His6 K59A;S61A (Myxococcus xanthus DK1622) (UniProt Q1D489); test: EMSA; conditions: 10x buffer: 380 mM HEPES, 380 mM NaCl, 50 mM MgCl2, 50% glycerol, 10 mM DTT, 15 ng/ul poly(dI-dC), 50 ng probe, 30 C 30 min, 10% PAGE 1x TBE 4 C, pH not …
T1 sequence: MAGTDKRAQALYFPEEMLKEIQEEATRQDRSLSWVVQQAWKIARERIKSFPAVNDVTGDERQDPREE

[2] = biological target: T2, CdbA R27A/R30A-His6 R78A;R81A (Myxococcus xanthus DK1622) (UniProt Q1D489); test: EMSA; conditions: 10x buffer: 380 mM HEPES, 380 mM NaCl, 50 mM MgCl2, 50% glycerol, 10 mM DTT, 15 ng/ul poly(dI-dC), 50 ng probe, 30 C 30 min, 10% PAGE 1x TBE 4 C, pH not …
T2 sequence: T1 sequence with A8K, A10S, R27A, R30A

ACTTGGGTCTCCGGGGCGGATTCGGGGTGACGACCTGAACACACCTGGGCCGTTATCCGACAGACTCCCAAGTGGGTCAACGGTTTCCAAGGACTCATTCCGAGGTCGCACGGTCCGTCCCCGTGCTCGTCCAGTTGCACGTAAGCTGTGCAACCATGCGCGAAAAAGGAAACGCCCCGGACTCCACGAGGAAGTCCGGGGCGCTTCGGAAAGAGGGACCGCCTAGAGAAATCTCCAGGCGGGCCCGTGG (double strand) [cdbAB promoter]
binding [1]: no binding | binding [2]: no binding
